Test results as given in patent US7648703.

Molecular target: Ep-CAM antigen (human pan-carcinoma antigen) (human) (UniProt P16422)
Assay: antibody binding to HT29 adenocarcinoma cells after 15 minute incubation; drug-treated against control cells

UniProt P16422, sequence (P16422 24-314): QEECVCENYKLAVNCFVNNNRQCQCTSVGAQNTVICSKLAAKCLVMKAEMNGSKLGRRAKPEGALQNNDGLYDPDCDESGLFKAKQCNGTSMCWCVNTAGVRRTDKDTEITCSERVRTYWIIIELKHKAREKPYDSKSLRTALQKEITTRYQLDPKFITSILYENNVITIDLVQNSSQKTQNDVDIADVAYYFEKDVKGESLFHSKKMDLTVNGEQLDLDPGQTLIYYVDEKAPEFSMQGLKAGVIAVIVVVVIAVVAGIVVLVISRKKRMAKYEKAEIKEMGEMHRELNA

B1: Panorex (17-1A mouse monoclonal antibody) (antibody, INN chains, looked up, V domains shown)
VH: QVQLQQSGAELVRPGTSVKVSCKASGYAFTNYLIEWVKQRPGQGLEWIGVINPGSGGTNYNEKFKGKATLTADKSSSTAYMQLSSLTSDDSAVYFCARDGPWFAYWGQGTLVTVSA
VL: NIVMTQSPKSMSMSVGERVTLTCKASENVVTYVSWYQQKPEQSPKLLIYGASNRYTGVPDRFTGSGSATDFTLTISSVQAEDLADYHCGQGYSYPYTFGGGTKLEIK
An increase in antibody binding (cells treated with Navelbine plus Cisplatin against control cells) of 34% and an increase in antibody binding (cells treated with Taxol against control cells) of 8% were found for B1 in this work.
